These are literature values, as cited in article PMC6525395.

pKd: −log10 of the molar value.

This data set deals with IL-6Rα (Homo sapiens) (UniProt P08887).
Chain of UniProt P08887 (P08887 20-355): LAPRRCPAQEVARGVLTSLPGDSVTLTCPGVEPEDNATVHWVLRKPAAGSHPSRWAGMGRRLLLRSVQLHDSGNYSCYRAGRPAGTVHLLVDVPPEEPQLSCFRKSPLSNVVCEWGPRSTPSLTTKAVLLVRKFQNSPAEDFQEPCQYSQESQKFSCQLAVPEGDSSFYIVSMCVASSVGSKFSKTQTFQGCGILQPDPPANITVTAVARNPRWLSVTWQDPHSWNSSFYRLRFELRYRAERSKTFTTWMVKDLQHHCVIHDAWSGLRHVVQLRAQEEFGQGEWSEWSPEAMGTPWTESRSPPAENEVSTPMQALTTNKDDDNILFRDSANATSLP

For orientation: pKd means the negative decadic logarithm of the Kd, by convention in mol/L. Take IL-6 (from UniProt P05231): the negative-log Kd (pKd) was 9.30.
